Test results as given in IntAct's records for PubMed 31515488.

How the values were obtained:
[1] = biological target: pacn1_human PACSIN1 (UniProt Q9BY11)
[2] = biological target: elmo1_human ELMO1 (UniProt Q92556)
[3] = biological target: zsc32_human ZSCAN32 (UniProt Q9NX65)
[4] = biological target: T1, acy3_human ACY3 (UniProt Q96HD9)
T1 sequence: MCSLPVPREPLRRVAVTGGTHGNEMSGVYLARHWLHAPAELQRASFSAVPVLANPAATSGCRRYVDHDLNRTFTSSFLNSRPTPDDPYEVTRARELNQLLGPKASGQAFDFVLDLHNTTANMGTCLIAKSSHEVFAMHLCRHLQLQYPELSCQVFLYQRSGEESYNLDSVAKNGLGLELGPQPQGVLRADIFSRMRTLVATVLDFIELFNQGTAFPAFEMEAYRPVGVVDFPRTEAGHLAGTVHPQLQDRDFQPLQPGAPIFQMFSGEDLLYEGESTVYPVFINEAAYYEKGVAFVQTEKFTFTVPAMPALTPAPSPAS

[5] = biological target: dpyl2_human DPYSL2 (UniProt Q16555)
[6] = biological target: zmat1_human ZMAT1 (UniProt Q5H9K5)
[7] = biological target: phs_human PCBD1 (UniProt P61457)
[8] = biological target: ei2ba_human EIF2B1 (UniProt Q14232)
[9] = biological target: T2, prdx3_human PRDX3 (UniProt P30048)
T2 sequence: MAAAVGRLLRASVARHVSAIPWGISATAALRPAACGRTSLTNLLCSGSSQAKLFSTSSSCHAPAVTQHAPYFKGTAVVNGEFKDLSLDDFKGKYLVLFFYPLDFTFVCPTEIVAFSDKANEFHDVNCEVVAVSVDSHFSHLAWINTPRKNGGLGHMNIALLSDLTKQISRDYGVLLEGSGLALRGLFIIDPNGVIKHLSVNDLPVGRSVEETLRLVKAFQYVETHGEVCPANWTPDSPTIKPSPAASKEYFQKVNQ

[10] = biological target: cryaa_human CRYAA (UniProt P02489)
[11] = biological target: T3, dmc1_human DMC1 (UniProt Q14565)
T3 sequence: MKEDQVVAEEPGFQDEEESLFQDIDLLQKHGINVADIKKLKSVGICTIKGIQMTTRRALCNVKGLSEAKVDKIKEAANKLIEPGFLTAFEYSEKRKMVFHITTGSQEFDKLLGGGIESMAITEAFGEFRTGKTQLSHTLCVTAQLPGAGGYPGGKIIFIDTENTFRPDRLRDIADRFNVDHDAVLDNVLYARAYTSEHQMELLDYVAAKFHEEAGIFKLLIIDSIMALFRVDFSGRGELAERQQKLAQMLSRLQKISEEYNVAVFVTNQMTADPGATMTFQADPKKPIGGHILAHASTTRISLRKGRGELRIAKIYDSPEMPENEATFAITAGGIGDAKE

[12] = biological target: trip6_human TRIP6 (UniProt Q15654)
[13] = biological target: nasp_human NASP (UniProt P49321)
[14] = biological target: pls1_human PLSCR1 (UniProt O15162)
[15] = biological target: sufu_human SUFU (UniProt Q9UMX1)
[16] = biological target: npal3_human NIPAL3 (UniProt Q6P499)
[17] = biological target: lerl1_human LEPROTL1 (UniProt O95214)
[18] = biological target: T4, cep55_human CEP55 (UniProt Q53EZ4)
T4 sequence: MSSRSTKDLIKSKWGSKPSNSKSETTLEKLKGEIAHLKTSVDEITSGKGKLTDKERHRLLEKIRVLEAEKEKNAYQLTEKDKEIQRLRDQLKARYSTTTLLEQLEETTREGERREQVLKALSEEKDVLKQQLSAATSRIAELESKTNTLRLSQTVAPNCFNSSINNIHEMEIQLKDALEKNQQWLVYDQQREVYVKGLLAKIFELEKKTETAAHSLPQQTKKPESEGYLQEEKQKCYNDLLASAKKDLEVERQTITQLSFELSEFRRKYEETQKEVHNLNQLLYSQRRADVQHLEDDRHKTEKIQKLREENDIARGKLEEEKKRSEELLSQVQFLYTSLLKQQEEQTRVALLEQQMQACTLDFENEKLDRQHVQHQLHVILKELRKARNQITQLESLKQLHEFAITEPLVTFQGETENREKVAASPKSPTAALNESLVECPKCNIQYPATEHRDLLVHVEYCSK

[19] = biological target: gors2_human GORASP2 (UniProt Q9H8Y8)
[20] = biological target: dpyl2_human DPYSL2 (UniProt Q16555); remark: listed apart in the source
[21] = biological target: dpyl3_human DPYSL3 (UniProt Q14195)
[22] = biological target: T5, dpyl5_human DPYSL5 (UniProt Q9BPU6)
T5 sequence: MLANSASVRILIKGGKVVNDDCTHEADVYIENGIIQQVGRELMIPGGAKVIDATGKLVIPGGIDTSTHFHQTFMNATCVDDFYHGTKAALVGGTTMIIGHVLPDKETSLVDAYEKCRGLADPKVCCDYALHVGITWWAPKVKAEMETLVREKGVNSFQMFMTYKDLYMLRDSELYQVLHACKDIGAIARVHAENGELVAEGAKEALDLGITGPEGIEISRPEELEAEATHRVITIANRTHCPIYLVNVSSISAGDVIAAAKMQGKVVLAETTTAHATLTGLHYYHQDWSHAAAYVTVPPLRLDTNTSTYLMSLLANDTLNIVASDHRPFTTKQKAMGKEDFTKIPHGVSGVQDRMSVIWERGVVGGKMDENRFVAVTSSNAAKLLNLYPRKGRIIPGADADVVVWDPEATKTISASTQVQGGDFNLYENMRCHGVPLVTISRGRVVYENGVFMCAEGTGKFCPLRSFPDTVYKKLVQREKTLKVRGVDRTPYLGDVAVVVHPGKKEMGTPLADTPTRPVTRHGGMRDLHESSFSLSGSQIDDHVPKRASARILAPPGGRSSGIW

[23] = biological target: T6, efhc2_human EFHC2 (UniProt Q5JST6)
T6 sequence: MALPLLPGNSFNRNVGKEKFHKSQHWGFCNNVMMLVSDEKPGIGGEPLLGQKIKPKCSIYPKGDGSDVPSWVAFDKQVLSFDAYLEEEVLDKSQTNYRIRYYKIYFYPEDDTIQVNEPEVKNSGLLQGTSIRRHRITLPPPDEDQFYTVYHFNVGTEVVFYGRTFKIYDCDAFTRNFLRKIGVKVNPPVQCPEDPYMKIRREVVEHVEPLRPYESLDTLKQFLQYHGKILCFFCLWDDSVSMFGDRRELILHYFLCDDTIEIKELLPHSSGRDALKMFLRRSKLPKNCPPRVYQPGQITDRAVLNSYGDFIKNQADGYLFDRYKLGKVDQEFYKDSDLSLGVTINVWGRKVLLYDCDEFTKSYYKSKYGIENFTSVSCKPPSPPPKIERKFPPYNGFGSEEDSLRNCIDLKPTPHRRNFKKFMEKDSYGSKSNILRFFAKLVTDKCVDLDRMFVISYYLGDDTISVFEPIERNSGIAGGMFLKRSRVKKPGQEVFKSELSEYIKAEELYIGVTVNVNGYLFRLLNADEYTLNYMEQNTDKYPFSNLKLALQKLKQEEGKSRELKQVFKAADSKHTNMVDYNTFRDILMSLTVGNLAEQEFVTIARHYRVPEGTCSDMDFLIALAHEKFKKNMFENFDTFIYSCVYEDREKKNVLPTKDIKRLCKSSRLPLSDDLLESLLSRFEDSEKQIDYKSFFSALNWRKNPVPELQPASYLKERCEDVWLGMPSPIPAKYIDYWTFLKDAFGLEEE

[24] = biological target: bnip3_human BNIP3 (UniProt Q12983)
[25] = biological target: T7, creb3_human CREB3 (UniProt O43889)
T7 sequence: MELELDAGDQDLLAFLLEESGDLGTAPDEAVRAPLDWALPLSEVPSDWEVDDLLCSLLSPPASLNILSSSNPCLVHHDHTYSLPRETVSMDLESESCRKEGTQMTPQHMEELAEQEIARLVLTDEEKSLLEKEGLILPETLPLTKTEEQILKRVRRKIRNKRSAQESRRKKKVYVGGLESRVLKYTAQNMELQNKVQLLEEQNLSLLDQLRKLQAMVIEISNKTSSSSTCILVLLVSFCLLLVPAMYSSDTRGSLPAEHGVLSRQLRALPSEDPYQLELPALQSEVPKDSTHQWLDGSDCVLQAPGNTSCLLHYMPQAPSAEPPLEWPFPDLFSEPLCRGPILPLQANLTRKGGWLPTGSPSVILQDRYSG

[26] = biological target: BCL2L13 (UniProt Q9BXK5)
[27] = biological target: mal_human MAL (UniProt P21145)
[28] = biological target: emp3_human EMP3 (UniProt P54852)
[29] = biological target: ppla_human PLN (UniProt P26678)
[30] = biological target: vatl_human ATP6V0C (UniProt P27449)
[31] = biological target: klhl2_human KLHL2 (UniProt O95198)
[32] = biological target: clip4_human CLIP4 (UniProt Q8N3C7)
Sequence of clip4_human CLIP4 (Q8N3C7 whole entry): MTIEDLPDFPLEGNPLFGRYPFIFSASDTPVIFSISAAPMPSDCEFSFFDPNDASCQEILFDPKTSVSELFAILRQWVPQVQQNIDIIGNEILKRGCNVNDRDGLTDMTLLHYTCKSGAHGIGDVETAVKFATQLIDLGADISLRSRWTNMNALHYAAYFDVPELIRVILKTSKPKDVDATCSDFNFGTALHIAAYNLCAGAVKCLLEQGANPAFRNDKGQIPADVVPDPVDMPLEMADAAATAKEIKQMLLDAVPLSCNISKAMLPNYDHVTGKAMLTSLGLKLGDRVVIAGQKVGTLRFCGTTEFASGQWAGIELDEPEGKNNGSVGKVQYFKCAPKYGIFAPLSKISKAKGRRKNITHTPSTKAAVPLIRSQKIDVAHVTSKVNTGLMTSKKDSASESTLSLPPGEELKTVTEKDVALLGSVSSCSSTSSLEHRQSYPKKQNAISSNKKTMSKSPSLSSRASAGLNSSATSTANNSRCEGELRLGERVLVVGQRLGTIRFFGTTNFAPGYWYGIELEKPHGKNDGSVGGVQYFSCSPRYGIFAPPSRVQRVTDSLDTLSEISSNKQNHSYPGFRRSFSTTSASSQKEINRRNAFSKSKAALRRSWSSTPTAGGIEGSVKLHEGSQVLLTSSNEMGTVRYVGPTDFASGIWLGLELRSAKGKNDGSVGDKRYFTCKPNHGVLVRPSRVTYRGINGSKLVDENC

Sequence of Isoform 1 of Ectodysplasin-A (Homo sapiens), Q92838-1 P118L (Q92838 whole entry P118L, canonical isoform): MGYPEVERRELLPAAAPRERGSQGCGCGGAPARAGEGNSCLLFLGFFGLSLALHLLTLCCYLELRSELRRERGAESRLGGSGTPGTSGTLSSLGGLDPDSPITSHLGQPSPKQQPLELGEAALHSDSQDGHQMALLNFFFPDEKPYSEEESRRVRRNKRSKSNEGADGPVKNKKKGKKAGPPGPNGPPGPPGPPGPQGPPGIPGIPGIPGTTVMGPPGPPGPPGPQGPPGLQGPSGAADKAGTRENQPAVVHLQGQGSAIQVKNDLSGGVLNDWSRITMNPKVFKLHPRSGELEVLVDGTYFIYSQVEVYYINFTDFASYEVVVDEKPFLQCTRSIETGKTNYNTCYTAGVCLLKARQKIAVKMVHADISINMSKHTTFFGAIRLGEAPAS
Sequence of Ectodysplasin-A (Homo sapiens), Q92838 R334H (Q92838 whole entry R334H): as the sequence (Q92838 whole entry P118L, canonical isoform) above, with L118P, R334H counted along it
Sequence of Zinc finger protein 114 (Homo sapiens), Q8NC26 V207A (Q8NC26 whole entry V207A): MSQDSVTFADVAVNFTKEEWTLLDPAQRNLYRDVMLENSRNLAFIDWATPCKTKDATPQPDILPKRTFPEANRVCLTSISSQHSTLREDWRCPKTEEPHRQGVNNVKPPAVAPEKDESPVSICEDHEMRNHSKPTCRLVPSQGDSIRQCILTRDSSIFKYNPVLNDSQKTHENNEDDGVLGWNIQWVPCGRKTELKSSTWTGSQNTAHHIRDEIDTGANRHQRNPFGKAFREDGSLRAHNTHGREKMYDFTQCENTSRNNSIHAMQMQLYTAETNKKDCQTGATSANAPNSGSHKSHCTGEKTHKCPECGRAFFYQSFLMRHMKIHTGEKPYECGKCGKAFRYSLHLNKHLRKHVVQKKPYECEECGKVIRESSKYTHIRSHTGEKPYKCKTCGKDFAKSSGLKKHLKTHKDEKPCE
Sequence of bnip3_human BNIP3 (Q12983 whole entry): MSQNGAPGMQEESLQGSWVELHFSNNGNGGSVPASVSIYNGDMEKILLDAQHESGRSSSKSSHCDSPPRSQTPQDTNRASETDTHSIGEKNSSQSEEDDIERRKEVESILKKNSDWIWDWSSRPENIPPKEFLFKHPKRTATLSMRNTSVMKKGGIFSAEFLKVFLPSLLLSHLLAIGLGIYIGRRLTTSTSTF
Sequence of mal_human MAL (P21145 whole entry): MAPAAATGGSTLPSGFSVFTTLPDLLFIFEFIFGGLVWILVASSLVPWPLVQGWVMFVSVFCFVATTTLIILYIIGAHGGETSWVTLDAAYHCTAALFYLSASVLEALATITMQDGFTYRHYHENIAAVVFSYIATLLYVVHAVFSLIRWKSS
Sequence of lerl1_human LEPROTL1 (O95214 whole entry): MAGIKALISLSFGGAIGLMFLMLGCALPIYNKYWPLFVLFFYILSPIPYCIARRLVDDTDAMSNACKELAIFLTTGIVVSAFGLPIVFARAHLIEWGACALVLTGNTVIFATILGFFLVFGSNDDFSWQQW
Sequence of vatl_human ATP6V0C (P27449 whole entry): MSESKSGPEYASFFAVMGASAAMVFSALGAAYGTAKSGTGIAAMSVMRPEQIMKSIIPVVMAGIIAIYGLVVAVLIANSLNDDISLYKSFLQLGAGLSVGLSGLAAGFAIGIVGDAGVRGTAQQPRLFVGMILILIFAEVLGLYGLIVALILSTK
Sequence of nasp_human NASP (P49321 whole entry): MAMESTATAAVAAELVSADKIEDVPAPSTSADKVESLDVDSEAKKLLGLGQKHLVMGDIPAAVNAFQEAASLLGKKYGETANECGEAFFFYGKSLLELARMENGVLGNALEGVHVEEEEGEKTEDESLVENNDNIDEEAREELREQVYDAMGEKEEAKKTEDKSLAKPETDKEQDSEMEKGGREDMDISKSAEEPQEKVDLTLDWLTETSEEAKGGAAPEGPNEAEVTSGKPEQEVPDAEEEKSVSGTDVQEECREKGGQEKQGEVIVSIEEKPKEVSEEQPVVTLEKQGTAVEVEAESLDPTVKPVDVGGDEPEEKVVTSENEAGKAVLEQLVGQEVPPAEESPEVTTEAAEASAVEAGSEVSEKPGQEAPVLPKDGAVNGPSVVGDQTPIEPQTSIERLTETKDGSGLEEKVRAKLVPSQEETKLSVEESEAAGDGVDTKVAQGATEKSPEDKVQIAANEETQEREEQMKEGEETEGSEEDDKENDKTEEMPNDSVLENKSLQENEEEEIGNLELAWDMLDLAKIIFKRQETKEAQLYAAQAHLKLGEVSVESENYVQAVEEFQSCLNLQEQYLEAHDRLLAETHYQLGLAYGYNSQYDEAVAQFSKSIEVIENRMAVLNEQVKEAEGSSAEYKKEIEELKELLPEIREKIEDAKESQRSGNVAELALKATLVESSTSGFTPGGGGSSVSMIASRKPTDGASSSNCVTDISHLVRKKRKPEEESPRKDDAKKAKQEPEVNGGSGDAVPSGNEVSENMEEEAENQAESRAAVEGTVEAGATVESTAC
Sequence of BCL2L13 (Q9BXK5 whole entry): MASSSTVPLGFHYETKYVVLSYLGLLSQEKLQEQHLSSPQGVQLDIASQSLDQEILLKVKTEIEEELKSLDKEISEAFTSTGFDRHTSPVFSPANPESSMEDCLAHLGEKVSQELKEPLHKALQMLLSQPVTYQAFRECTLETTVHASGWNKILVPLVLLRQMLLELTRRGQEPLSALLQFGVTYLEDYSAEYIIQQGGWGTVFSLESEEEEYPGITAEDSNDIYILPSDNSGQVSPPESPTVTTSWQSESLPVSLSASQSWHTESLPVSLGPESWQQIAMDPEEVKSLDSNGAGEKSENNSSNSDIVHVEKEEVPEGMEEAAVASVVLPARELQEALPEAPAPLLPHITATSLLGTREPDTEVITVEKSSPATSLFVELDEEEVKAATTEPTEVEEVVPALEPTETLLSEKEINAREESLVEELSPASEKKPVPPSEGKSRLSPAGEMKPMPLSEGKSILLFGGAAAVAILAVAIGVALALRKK
Sequence of dpyl3_human DPYSL3 (Q14195 whole entry): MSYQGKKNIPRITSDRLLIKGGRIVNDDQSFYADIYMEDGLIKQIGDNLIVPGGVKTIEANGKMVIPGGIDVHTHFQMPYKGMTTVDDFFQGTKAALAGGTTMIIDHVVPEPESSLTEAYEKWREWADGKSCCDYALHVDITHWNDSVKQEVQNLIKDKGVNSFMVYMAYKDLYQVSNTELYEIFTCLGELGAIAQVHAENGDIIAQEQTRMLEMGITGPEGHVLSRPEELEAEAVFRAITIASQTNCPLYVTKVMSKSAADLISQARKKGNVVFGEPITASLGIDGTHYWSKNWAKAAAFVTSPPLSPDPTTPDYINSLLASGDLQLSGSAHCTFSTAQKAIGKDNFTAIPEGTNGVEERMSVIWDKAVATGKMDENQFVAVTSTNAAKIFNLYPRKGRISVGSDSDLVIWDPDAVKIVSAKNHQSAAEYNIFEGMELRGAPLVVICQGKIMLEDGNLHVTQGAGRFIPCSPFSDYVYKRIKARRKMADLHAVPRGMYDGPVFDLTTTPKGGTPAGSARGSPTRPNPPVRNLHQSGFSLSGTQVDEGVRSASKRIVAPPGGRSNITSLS
Sequence of zmat1_human ZMAT1 (Q5H9K5 whole entry): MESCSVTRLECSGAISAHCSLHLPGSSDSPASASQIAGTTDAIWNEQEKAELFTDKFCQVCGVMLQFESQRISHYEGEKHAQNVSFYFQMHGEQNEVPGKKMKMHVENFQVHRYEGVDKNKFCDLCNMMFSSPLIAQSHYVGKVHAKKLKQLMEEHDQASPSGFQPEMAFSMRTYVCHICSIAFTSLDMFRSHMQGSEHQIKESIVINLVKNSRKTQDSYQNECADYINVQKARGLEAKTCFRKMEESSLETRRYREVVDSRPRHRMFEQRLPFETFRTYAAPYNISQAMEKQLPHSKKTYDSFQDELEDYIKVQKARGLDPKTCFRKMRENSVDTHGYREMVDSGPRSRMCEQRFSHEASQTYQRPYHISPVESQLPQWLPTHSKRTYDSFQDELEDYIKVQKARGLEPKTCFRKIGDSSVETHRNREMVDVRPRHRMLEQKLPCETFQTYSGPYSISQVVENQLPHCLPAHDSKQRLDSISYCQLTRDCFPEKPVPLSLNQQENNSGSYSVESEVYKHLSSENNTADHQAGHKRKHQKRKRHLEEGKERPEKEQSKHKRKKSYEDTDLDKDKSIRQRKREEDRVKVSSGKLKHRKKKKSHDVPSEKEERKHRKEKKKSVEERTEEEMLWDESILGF
Sequence of ppla_human PLN (P26678 whole entry): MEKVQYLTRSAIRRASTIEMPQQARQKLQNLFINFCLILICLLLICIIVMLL
Sequence of cryaa_human CRYAA (P02489 whole entry): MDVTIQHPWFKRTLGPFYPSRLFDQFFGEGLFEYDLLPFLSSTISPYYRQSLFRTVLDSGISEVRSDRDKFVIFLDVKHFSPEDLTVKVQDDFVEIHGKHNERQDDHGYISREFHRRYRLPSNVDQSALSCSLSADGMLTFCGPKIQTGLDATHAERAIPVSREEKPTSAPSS

Protein kinase C and casein kinase substrate in neurons protein 3 (Homo sapiens) (from UniProt Q9UKS6) A61V
effect of a mutation on the interaction [1]: disrupting interaction strength

Zinc finger protein 398 (Homo sapiens), Q8TD17 E87D
effect of a mutation on the interaction [2]: with no effect

Zinc finger protein with KRAB and SCAN domains 1 (Homo sapiens), P17029 R155K
effect of a mutation on the interaction [3]: with no effect

Golgi reassembly-stacking protein 2 (Homo sapiens) (from UniProt Q9H8Y8) S441C
effect of a mutation on the interaction [4]: with no effect | effect of a mutation on the interaction [5]: with no effect | effect of a mutation on the interaction [6]: with no effect | effect of a mutation on the interaction [7]: with no effect | effect of a mutation on the interaction [8]: with no effect | effect of a mutation on the interaction [9]: disrupting interaction strength | effect of a mutation on the interaction [10]: with no effect | effect of a mutation on the interaction [11]: with no effect

Rho-related GTP-binding protein RhoQ (Homo sapiens), P17081 E68K
effect of a mutation on the interaction [12]: with no effect

Histone H3.3C (Homo sapiens) (from UniProt Q6NXT2) R53C
effect of a mutation on the interaction [13]: with no effect

Regulator of G-protein signaling 3 (Homo sapiens), P49796-4 R528Q
effect of a mutation on the interaction [14]: with no effect

Zinc finger protein 263 (Homo sapiens), O14978 C310S
effect of a mutation on the interaction [15]: with no effect

Ectodysplasin-A (Homo sapiens), Q92838 R334H
effect of a mutation on the interaction [16]: with no effect | effect of a mutation on the interaction [17]: with no effect

Ribosomal RNA small subunit methyltransferase NEP1 (Homo sapiens) (from UniProt Q92979) A34G
effect of a mutation on the interaction [18]: with no effect

Dihydropyrimidinase-related protein 2 (Homo sapiens) (from UniProt Q16555-1) R481C
effect of a mutation on the interaction [19]: disrupting interaction strength | effect of a mutation on the interaction [20]: disrupting interaction strength | effect of a mutation on the interaction [21]: disrupting interaction strength | effect of a mutation on the interaction [22]: with no effect

Chloride intracellular channel protein 3 (Homo sapiens) (from UniProt O95833) M210L
effect of a mutation on the interaction [23]: with no effect

Integral membrane protein 2B (Homo sapiens) (from UniProt Q9Y287) I237T
effect of a mutation on the interaction [24]: with no effect

Integral membrane protein 2B (Homo sapiens) (from UniProt Q9Y287) P31H
effect of a mutation on the interaction [25]: with no effect | effect of a mutation on the interaction [26]: with no effect

Isoform 1 of Ectodysplasin-A (Homo sapiens), Q92838-1 P118L
effect of a mutation on the interaction [27]: with no effect | effect of a mutation on the interaction [28]: with no effect | effect of a mutation on the interaction [29]: with no effect | effect of a mutation on the interaction [30]: with no effect

Zinc finger protein 114 (Homo sapiens), Q8NC26 V207A
effect of a mutation on the interaction [31]: with no effect | effect of a mutation on the interaction [32]: with no effect
